Results: patent US20100285988

Columns and labels:
[1] = system: Aβ17-23 (LVFFAED) peptide
[2] = system: βCTF-FLAG (recombinant β-secretase cleaved APP C-terminal fragment)
[3] = system: βCTFΔ (Aβ17-23 deleted form of βCTF)

Substance: γ-secretase (human; HeLa cell membrane / solubilized HeLa membrane; endogenous in HEK293 cells)
- potency on Notch cleavage relative to APP-derived substrates [1]: the potency of this peptide is 6-fold less potent in the proteolytic cleavage of Notch by γ-secretase than that of APP-derived substrates
- Vmax [2]: Vmax values are 16±1 and 215±24 min^-1 µg^-1 for βCTF and βCTFΔ, respectively
- apparent Km (Aβ40 production, ECL) [2]: the apparent Km is 0.47±0.09 µM for βCTF
- rate of γ-secretase hydrolysis (X40 product, ECL) relative to αCTF-FLAG [2]: The rate of γ-secretase hydrolysis of βCTF-FLAG is 12-fold greater than for hydrolysis of αCTF-FLAG
- Vmax [3]: Vmax values are 16±1 and 215±24 min^-1 µg^-1 for βCTF and βCTFΔ, respectively
- Vmax/Km or kcat/Km relative to βCTF [3]: is 42-fold greater than for the βCTF substrate
- apparent Km (Aβ40 production, ECL) [3]: 0.26±0.09 µM for βCTFA
